What all share (format): cell-based
The subject of test [1] is HeLa cells. Description: Parkin colocalization with mitochondria scored by confocal microscopy. To be noted: HeLa cells, 2 mM paraquat, 24 hours. The method in brief: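 Transfected HeLa cells fixed 12–24 h post-transfection in 4% paraformaldehyde. Cells immunostained for mitochondrial markers and imaged by confocal microscopy. Parkin recruitment to mitochondria assessed by line-scan colocalization.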

Test [2] deals with HeLa cells. In words: PINK1-YFP imaging and colocalization in HeLa cells. Particulars: 2 mM paraquat, 16 hours. How it is done:
Confocal microscopy of fixed samples, scoring of Parkin recruitment and Parkininduced mitophagy, and live cell imaging were performed as described previously (Narendra (2008) J Cell Biol 183: 795-803). Experiments in Mfn1/2 null cells were performed as described previously with minor modifications.
Confocal microscopy of fixed samples, scoring of Parkin recruitment and Parkin-induced mitophagy, and live cell imageing were performed as described previously (Narendra (2008) J Cell Biol 183: 795-803). Experiments in Mfn1/2 null cells were performed as described previously with minor modifications described in the supplemental methods (Narendra (2008) J Cell Biol 183: 795-803).

Test [3] concerns HeLa cells. Description: Regulated FRB/FKBP heterodimerization of PINK1 to outer mitochondrial membrane. From the text: In the presence of the rapamycin derivative AP21967, the FRB domain and the FKBP domain heterodimerize, but only if they are in the same compartment. Thus, FRB-PINK1Δ1-110-YFP should be recruited from the cytosol to mitochondria if the FKBP domain of TOM20-FKBP faces the cytosol but not if it faces the inner membrane space or the matrix. […] To assess whether PINK1 expression on the outer mitochondrial membrane is sufficient to recruit Parkin, mCherry-Parkin, FRB-PINK1Δ1-110-YFP, and TOM20-FKBP were co-transfected. In the absence of AP21967, mCherry-Parkin was in the cytosol, but following incubation AP21967 mCherry-Parkin was recruited to mitochondria in 96.7±4.1% of cells, in the absence of CCCP (FIG. 14F and FIG. 15D).
HeLa YFP-Parkin, E18 Rat cortical neurons, PINK1^+/+ SV40 transformed MEFs cells, PINK1^−/− SV40 transformed MEF, M17 neuroblastoma control shRNA, M17 neuroblastoma PINK1, Mfn1/2^−/− MEF, and Parl^−/− MEF cell lines have been described previously (Narendra (2008) J Cell Biol 183: 795-803). PINK1^+/+ and PINK1^−/− primary MEFs were isolated from embryos using a standard protocol (Gautier (2008) Proc Natl Acad Sci USA 105: 11364-11369). […]

The test system of test [4] is HeLa cells stably expressing GFP-LC3. In words: Mitochondria encapsulated by LC3-positive autophagosomes. Particulars: 10 μM CCCP, 1 hour. How it is done: Previous studies in mammalian cells have concluded that depolarized mitochondria are degraded by autophagy. To test whether Parkin may be regulating this process, colocalization was assessed between a marker of autophagosomes, LC3, and mitochondria after mitochondrial depolarization using HeLa cells stably transfected with GFP-LC3 (Bampton et al., 2005). Little colocalization between mitochondria and autophagosomes was seen after 1 hours of CCCP exposure in untransfected HeLa cells (FIG. 5A, left). […] Consistent with the conclusion that Parkin accumulates on mitochondria destined for autophagy, Parkin colocalized with LC3 after CCCP treatment (FIG. 5C) but not before.
HeLa cells stably expressing YFP-Parkin using the Flp-In system (Invitrogen) were creating according to the manufacturer's instructions and maintained in 300 μg/ml hygromycin (Sigma-Aldrich). Rat cortical neurons were isolated on embryonic day 18 and grown in neurobasal media supplemented with B-27, L-glutamine, and penicillin/streptomycin. All cell culture materials were obtained from Invitrogen and all chemicals were obtained from Sigma-Aldrich. Chemicals were prepared from DMSO stock solutions, except paraquat, N-acetyl-cysteine, and 3-methyladenine, which were added fresh to media. Mfn1−/−, Mfn2−/− and Mfn1−/−, Mfn2−/− double knockout MEFs were generously donated by D. C. […]

For the next test, the system named is PINK1. In words: PINK1 cleavage pattern by immunoblotting (Examples 4 and 5). Particulars: HeLa; for levels of FL and/or ΔMTS-PINK1: absence of CCCP or MG132; for 52 kDa fragment of PINK1: absence of MG132 treatment. The procedure:
PARL siRNA (5′-[…]-C′) were synthesized by Qiagen. In order to achieve efficient knockdown of PARL, cells were transfected twice over a period of 96 hrs. PINK1-V5/His was a gift from M. Cookson (National Institute of Health, Bethesda, Md.). For site-directed mutagenesis, primers were designed using Primer X, web-based mutagenic primer design program (http://www.bioinformatics.org/primerx/), and produced by Operon. 15 rounds of PCR reactions were performed using Phusion DNA polymerase (Finnzymes) and WT PINK1-YFP constructs as a template. Introduction of point mutations were confirmed by sequencing.
(§1) Cells were cultured in borosilicated chamber slides for imaging, 6-well plates for whole cell lysates, and 100 or 150 mm culture dish for subcellular fractionation. One day after seeding, cells were transfected with indicated constructs using Fugene HD (Roche) or Lipofectamine 2000 (Invitrogen) according to the manufacturer's guidelines.
For whole cell lysates, cells were washed twice with cold-PBS and then directly lysed with 1× sample buffer. For mitochondrial fraction, cells were fractionated as described previously (Narendra et al., 2008) and below, and then mitochondrial pellets were lysed with 1× sample buffer. 20 μg of proteins were separated on 4-12% Tris-glycine or Bis-Tris SDS-PAGE. The following antibodies were used: anti-PINK1 (Novus Biologicals), anti-PARL N-terminal (a gift from L. Pellegrini), anti-Tom20 (Santa Cruz Biotechnology, Inc.), anti-AIF (Sigma-Aldrich) and antiHtra2/Omi (R&D systems) polyclonal antibodies; anti-VDAC (Calbiochem), anti-Tubulin, anti-βactin (Sigma-Aldrich), anti-Hsp70 (Cell Signaling Technologies), anti-Tom20 (BD), anti-Tim23 and anti-cytochrome C (BD) monoclonal antibodies.

In test [5] the test system is HeLa cells. Description: Mitochondrial translocation of Parkin by imaging (Examples 4 and 5). Particulars: HeLa cells or PINK1 KO cells, without CCCP. How it is done:
as §1
For immunocytochemistry, cultured cells in borosilicated chamber slides were fixed with 4% paraformaldehyde in PBS (USB) and permeabilized with the indicated detergent. After 30 min blocking with 10% BSA in PBS, cells were stained with the following primary antibodies: antiTom20 polyclonal antibody (Santa Cruz Biotechnology, Inc.) and anti-cytochrome C monoclonal antibody (BD), or anti-Tom20 monoclonal antibody (BD) and anti-GFP polyclonal antibody (Invitrogen) and then with the following secondary antibodies: goat anti-mouse/rabbit IgG antibody conjugated with Alexa Fluor 594/647, respectively. In case of live cell imaging, cells were pulsed with 600 nM TMRE for 5 min to evaluate mitochondrial membrane potential or 10 nM Mitotracker Red for 30 min to see the mitochondrial morphology. Cells were imaged using an inverted microscope (LSM510 Meta; Carl Zeiss) with 63×/1.4 oil DIC Plan Apo objective. Image contrast and brightness were adjusted in LSM image browser (Carl Zeiss).

Positions count from the first letter of the chain named. Numbers in names are those of the source.

Consider `C[n+]1ccc(-c2cc[n+](C)cc2)cc1` [paraquat, reference compound], for which the “YFP-Parkin recruitment to mitochondria” value is reported as “recruited to depolarized mitochondria” in the test with HeLa cells [1] and “triggers Parkin recruitment to mitochondria” in the test with HeLa cells [1] (listed as Paraquat). In addition, in the test on HeLa cells [2], the “average pearson coefficient PINK1-YFP / MTR” value stood at 0.26±0.13. Besides, the “average pearson coefficient PINK1-YFP / cytochrome c” value in the test on HeLa cells [2] was 0.58±0.11.

Regarding `CO[C@H]1[C@@H](O)[C@H](C)C[C@H](C)/C=C/C=C/C=C(\C)[C@@H](c2c[nH]c3c(C)cccc23)C[C@@H]2CC[C@@H](C)[C@@](O)(O2)C(=O)C(=O)N2CCCC[C@H]2C(=O)O[C@H]([C@H](C)C[C@@H]2CC[C@@H](O)[C@H](OC)C2)C[C@H](O)[C@H](C)/C=C(\C)[C@H]1O` [AP21967], the “cells with mCherry-Parkin recruited to mitochondria” value in the test with HeLa cells [3] (HeLa with FRB-PINK1Δ1-110-YFP, TOM20-FKBP, mCherry-Parkin, 250 nM AP21967, 8 hours, absence of CCCP) was found to be 96.7±4.1%. In addition, in the test with HeLa cells [3] (HeLa, 250 nM AP21967), the “recruitment of FRB-PINK1Δ1-110-YFP to the outer mitochondrial membrane” value is “quickly recruited”.

B1: mCherry-Parkin: mCherry-tagged Parkin expressed from a transfected vector (protein, UniProt O60260 1-465, looked up)
E3 ubiquitin-protein ligase …: MIVFVRFNSSHGFPVEVDSDTSIFQLKEVVAKRQGVPADQLRVIFAGKELRNDWTVQNCDLDQQSIVHIVQRPWRKGQEMNATGGDDPRNAAGGCEREPQSLTRVDLSSSVLPGDSVGLAVILHTDSRKDSPPAGSPAGRSIYNSFYVYCKGPCQRVQPGKLRVQCSTCRQATLTLTQGPSCWDDVLIPNRMSGECQSPHCPGTSAEFFFKCGAHPTSDKETSVALHLIATNSRNITCITCTDVRSPVLVFQCNSRHVICLDCFHLYCVTRLNDRQFVHDPQLGYSLPCVAGCPNSLIKELHHFRILGEEQYNRYQQYGAEECVLQMGGVLCPRPGCGAGLLPEPDQRKVTCEGGNGLGCGFAFCRECKEAYHEGECSAVFEASGTTTQAYRVDERAAEQARWEAASKETIKKTTKPCPRCHVPVEKNGGCMHMKCPQPQCRLEWCWNCGCEWNRVCMGDHWFDV
modifications: mCherry fusion
notes: mCherry-tagged Parkin expressed from a transfected vector
Turning to B1, the “LC3 encompassed mitochondria per cell” value in test [4] is reported as 10.55±6.06.

B2: G97F: PINK1-YFP transmembrane domain point mutant (protein, UniProt Q9BXM7 78-581, looked up, variant G97F)
Serine/threonine-protein …: AARLQRQFVVRAWGCAGPCFRAVFLAFGLGLGLIEEKQAESRRAVSACQEIQAIFTQKSKPGPDPLDTRRLQGFRLEEYLIGQSIGKGCSAAVYEATMPTLPQNLEVTKSTGLLPGRGPGTSAPGEGQERAPGAPAFPLAIKMMWNISAGSSSEAILNTMSQELVPASRVALAGEYGAVTYRKSKRGPKQLAPHPNIIRVLRAFTSSVPLLPGALVDYPDVLPSRLHPEGLGHGRTLFLVMKNYPCTLRQYLCVNTPSPRLAAMMLLQLLEGVDHLVQQGIAHRDLKSDNILVELDPDGCPWLVIADFGCCLADESIGLQLPFSSWYVDRGGNGCLMAPEVSTARPGPRAVIDYSKADAWAVGAIAYEIFGLVNPFYGQGKAHLESRSYQEAQLPALPESVPPDVRQLVRALLQREASKRPSARVAANVLHLSLWGEHILALKNLKLDKMVGWLLQQSAATLLANRLTEKCCVETKMKMLFLANLECETLCQAALLLCSWRAAL
modifications: YFP fusion
notes: PINK1-YFP transmembrane domain point mutant
On to B2, for which, in the test on PINK1, the “levels of FL and/or ΔMTS-PINK1” value is “dramatically increased levels”.

B3: A103W: PINK1-YFP transmembrane domain point mutant (protein, UniProt Q9BXM7 78-581, looked up, variant A103W)
Serine/threonine-protein …: B2 Serine/threonine-protein … with F20G, A26W
modifications: C-terminal YFP fusion
notes: as for B2
As for B3, the “52 kDa fragment of PINK1” value in the test with PINK1 is “stabilize the 52 kDa fragment”. Moreover, in the test on HeLa cells [5], the “mitochondrial translocation of Parkin induced by PINK1 mutant” value (“mitochondrial translocation” below) is “did not recruit Parkin”.

B4: G105W: PINK1-YFP transmembrane domain point mutant (protein, UniProt Q9BXM7 78-581, looked up, variant G105W)
Serine/threonine-protein …: B2 Serine/threonine-protein … with F20G, G28W
modifications: C-terminal YFP fusion
notes: as for B2
As to B4, the “52 kDa fragment of PINK1” value in the test with PINK1 is “stabilize the 52 kDa fragment”. Further, the “mitochondrial translocation” value in the test on HeLa cells [5] was “did not recruit Parkin”.

B5: R98F: PINK1-YFP transmembrane domain point mutant (protein, UniProt Q9BXM7 78-581, looked up, variant R98F)
Serine/threonine-protein …: B2 Serine/threonine-protein … with F20G, R21F
modifications: YFP fusion
notes: as for B2
For B5, the “levels of FL and/or ΔMTS-PINK1” value in the test with PINK1 is reported as “dramatically increased levels”. Further, the “mitochondrial translocation” value in the test with HeLa cells [5] is given as “did not induce”.

Source of the values: patent US20120277286A1, “COMPOSITIONS AND METHODS FOR THE TREATMENT OR PREVENTION OF MITOCHONDRIAL DISEASES” (The Government of the USA, as represented by the Secretary, …, priority 2009, published 2012).
